# Experimental data from patent publication US20230357429A1 (JANUX THERAPEUTICS, published 2023).
# Where two headings read alike, the source gives them in different places. Where no end group is shown, it is not given here.
# B1: PC-34 (bispecific antibody)
# light: GGVDFCALYHWPICYQGGGGSGGLSGRSDAGSPLGLAGSGGSDIQLTQSPSSLSASVGDRVSITCKASQDVSIAVAWYQQKPGKAPKLLIYSASYRYTGVPDRFSGSGSGTDFTLTISSLQPEDFAVYYCQQHYITPLTFGAGTKVEIKRTVAAPSVFIFPPSDEQLKSGTASVVCLLNNFYPREAKVQWKVDNALQSGNSQESVTEQDSKDSTYSLSSTLTLSKADYEKHKVYACEVTHQGLSSPVTKSFNRGEC
# heavy: not shown
# notes: Masked polypeptide complex: anti-TROP2 F108A, anti-CD3 H101A; CD3 mask …
# B2: PC-42 (bispecific antibody)
# light: GGVDFCALYHWPICYQGGGGSGGLSGRSDAGSPLGLAGSGGSDIQLTQSPSSLSASVGDRVSITCKASQDVSIAVAWYQQKPGKAPKLLIYSASYRYTGVPDRFSGSGSGTDFTLTISSLQPEDFAVYYCQQHYITPLTFGAGTKVEIKRTVAAPSVFIFPPSDEQLKSGTASVVCLLNNFYPREAKVQWKVDNALQSGNSQESVTEQDSKDSTYSLSSTLTLSKADYEKHKVYACEVTHQGLSSPVTKSFNRGEC
# heavy: EVQLVESGGGLVQPGGSLRLSCAASGSTFYTAVMGWVRQAPGKGLEWVAAIRWTALTTSYADSVKGRFTISRDGAKTTLYLQMNSLRPEDTAVYYCAARGTLGLFTTADSYDYWGQGTLVTVSSGGGGSGGGSGGASQCLGPEWEVCPYGGGGSGGGLSGRSDAGSPLGLAGSGGGSEVQLVESGGGLVQPGGSLKLSCAASGFTFNKYAMNWVRQASGKGLEWVGRIRSKYNNYATYYADSVKDRFTISRDDSKNTAYLQMNSLKTEDTAVYYCVRHGNFGNSYISYWAYWGQGTLVTVSSGGGGSGGGGSGGGGSQTVVTQEPSFSVSPGGTVTLTCRSSTGAVTSGNYANWVQQTPGQAPRGLIGGTKFLAPGVPDRFSGSILGNKAALTITGAQADDESDYYCVLWYSNRWVFGGGTKLTVLGGGGSQVQLQQSGSELKKPGASVKVSCKASGYTFTNYGMNWVKQAPGQGLKWMGWINTYTGEPTYTDDFKGRFAFSLDTSVSTAYLQISSLKADDTAVYFCARGGFGSSYWYADVWGQGSLVTVSSASTKGPSVFPLAPSSKSTSGGTAALGCLVKDYFPEPVTVSWNSGALTSGVHTFPAVLQSSGLYSLSSVVTVPSSSLGTQTYICNVNHKPSNTKVDKKVEPKSC
# notes: Masked polypeptide complex: anti-TROP2 F108A, anti-CD3 with P41S, A49G, N87S ; E227D
# B3: PC-45 (bispecific antibody)
# light: GGVDFCALYHWPICYQGGGGSGGLSGRSDAGSPLGLAGSGGSDIQLTQSPSSLSASVGDRVSITCKASQDVSIAVAWYQQKPGKAPKLLIYSASYRYTGVPDRFSGSGSGTDFTLTISSLQPEDFAVYYCQQHYITPLTFGAGTKVEIKRTVAAPSVFIFPPSDEQLKSGTASVVCLLNNFYPREAKVQWKVDNALQSGNSQESVTEQDSKDSTYSLSSTLTLSKADYEKHKVYACEVTHQGLSSPVTKSFNRGEC
# heavy: not shown
# notes: Masked polypeptide complex: anti-TROP2 F108A, anti-CD3 N30Q, I109V, G172A, V231A; CD3 mask …
# B4: PC-44 (bispecific antibody)
# light: GGVDFCALYHWPICYQGGGGSGGLSGRSDAGSPLGLAGSGGSDIQLTQSPSSLSASVGDRVSITCKASQDVSIAVAWYQQKPGKAPKLLIYSASYRYTGVPDRFSGSGSGTDFTLTISSLQPEDFAVYYCQQHYITPLTFGAGTKVEIKRTVAAPSVFIFPPSDEQLKSGTASVVCLLNNFYPREAKVQWKVDNALQSGNSQESVTEQDSKDSTYSLSSTLTLSKADYEKHKVYACEVTHQGLSSPVTKSFNRGEC
# heavy: not shown
# notes: as for B3
# B5: PC-37 (bispecific antibody)
# light: GGVDFCALYHWPICYQGGGGSGGLSGRSDAGSPLGLAGSGGSDIQLTQSPSSLSASVGDRVSITCKASQDVSIAVAWYQQKPGKAPKLLIYSASYRYTGVPDRFSGSGSGTDFTLTISSLQPEDFAVYYCQQHYITPLTFGAGTKVEIKRTVAAPSVFIFPPSDEQLKSGTASVVCLLNNFYPREAKVQWKVDNALQSGNSQESVTEQDSKDSTYSLSSTLTLSKADYEKHKVYACEVTHQGLSSPVTKSFNRGEC
# heavy: not shown
# notes: Masked polypeptide complex: anti-TROP2 F108A, anti-CD3 F240A; CD3 mask …
# B6: PC-36 (bispecific antibody)
# light: GGVDFCALYHWPICYQGGGGSGGLSGRSDAGSPLGLAGSGGSDIQLTQSPSSLSASVGDRVSITCKASQDVSIAVAWYQQKPGKAPKLLIYSASYRYTGVPDRFSGSGSGTDFTLTISSLQPEDFAVYYCQQHYITPLTFGAGTKVEIKRTVAAPSVFIFPPSDEQLKSGTASVVCLLNNFYPREAKVQWKVDNALQSGNSQESVTEQDSKDSTYSLSSTLTLSKADYEKHKVYACEVTHQGLSSPVTKSFNRGEC
# heavy: not shown
# notes: Masked polypeptide complex: anti-TROP2 F108A, anti-CD3 F104A
# B7: PC-38 (bispecific antibody)
# light: GGVDFCALYHWPICYQGGGGSGGLSGRSDAGSPLGLAGSGGSDIQLTQSPSSLSASVGDRVSITCKASQDVSIAVAWYQQKPGKAPKLLIYSASYRYTGVPDRFSGSGSGTDFTLTISSLQPEDFAVYYCQQHYITPLTFGAGTKVEIKRTVAAPSVFIFPPSDEQLKSGTASVVCLLNNFYPREAKVQWKVDNALQSGNSQESVTEQDSKDSTYSLSSTLTLSKADYEKHKVYACEVTHQGLSSPVTKSFNRGEC
# heavy: not shown
# notes: as for B5
# B8: PC-46 (bispecific antibody)
# light: GGVDFCALYHWPICYQGGGGSGGLSGRSDAGSPLGLAGSGGSDIQLTQSPSSLSASVGDRVSITCKASQDVSIAVAWYQQKPGKAPKLLIYSASYRYTGVPDRFSGSGSGTDFTLTISSLQPEDFAVYYCQQHYITPLTFGAGTKVEIKRTVAAPSVFIFPPSDEQLKSGTASVVCLLNNFYPREAKVQWKVDNALQSGNSQESVTEQDSKDSTYSLSSTLTLSKADYEKHKVYACEVTHQGLSSPVTKSFNRGEC
# heavy: not shown
# notes: Masked polypeptide complex: anti-TROP2 F108A, anti-CD3 N30Q, I109V, G172A, V231A
# B9: PC-35 (bispecific antibody)
# light: GGVDFCALYHWPICYQGGGGSGGLSGRSDAGSPLGLAGSGGSDIQLTQSPSSLSASVGDRVSITCKASQDVSIAVAWYQQKPGKAPKLLIYSASYRYTGVPDRFSGSGSGTDFTLTISSLQPEDFAVYYCQQHYITPLTFGAGTKVEIKRTVAAPSVFIFPPSDEQLKSGTASVVCLLNNFYPREAKVQWKVDNALQSGNSQESVTEQDSKDSTYSLSSTLTLSKADYEKHKVYACEVTHQGLSSPVTKSFNRGEC
# heavy: not shown
# notes: as for B1
# Experiments:
# [1] = molecular target: T1, Human TROP2 Full length (human, UniProt P09758 31-323); assay: cell-based or functional assay
# T1 sequence: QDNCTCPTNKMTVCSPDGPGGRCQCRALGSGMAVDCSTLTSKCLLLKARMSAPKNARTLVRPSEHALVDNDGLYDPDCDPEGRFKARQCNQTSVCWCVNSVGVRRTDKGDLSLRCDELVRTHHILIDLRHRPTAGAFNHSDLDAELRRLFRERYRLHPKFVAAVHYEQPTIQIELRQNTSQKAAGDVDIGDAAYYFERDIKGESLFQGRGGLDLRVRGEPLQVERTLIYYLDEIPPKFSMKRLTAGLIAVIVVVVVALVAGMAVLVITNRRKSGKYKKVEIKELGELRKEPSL
# [2] = molecular target: T2, Cyno TROP2 Full length (cynomolgus monkey, UniProt P09758 31-323 (human entry)); assay: cell-based or functional assay
# T2 chain: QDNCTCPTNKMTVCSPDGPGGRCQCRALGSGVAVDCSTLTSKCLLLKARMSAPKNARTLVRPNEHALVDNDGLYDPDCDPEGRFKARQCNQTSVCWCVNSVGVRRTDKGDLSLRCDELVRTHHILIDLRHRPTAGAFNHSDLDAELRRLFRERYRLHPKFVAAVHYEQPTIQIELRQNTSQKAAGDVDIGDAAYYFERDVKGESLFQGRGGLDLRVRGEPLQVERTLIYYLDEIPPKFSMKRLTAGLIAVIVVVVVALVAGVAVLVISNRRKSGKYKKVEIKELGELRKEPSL
# [3] = molecular target: T3, Human TROP2 ECD (31-274 AA) (human, UniProt P09758 31-274, biotinylated); assay: ELISA; biotinylated TROP2 on neutravidin plates, PC titrated, HRP secondary
# T3 construct: also called biotinylated TROP2; TROP2-biotin
# T3 sequence: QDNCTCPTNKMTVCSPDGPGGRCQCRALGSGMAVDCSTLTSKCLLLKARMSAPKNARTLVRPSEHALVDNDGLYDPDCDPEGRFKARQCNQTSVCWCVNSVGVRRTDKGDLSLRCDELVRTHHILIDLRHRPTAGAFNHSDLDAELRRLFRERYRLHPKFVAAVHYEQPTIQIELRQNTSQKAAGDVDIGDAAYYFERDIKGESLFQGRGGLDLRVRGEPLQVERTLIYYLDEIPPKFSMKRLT
# Procedure: (§1) TROP2 TCEs and masked polypeptide complexes (PCs) were evaluated for their ability to bind TROP2 and CD3 by ELISA. […] The TCE or PC constructs diluted in buffer were then added to the antigen coated plates. Binding was measured using a standard horse radish peroxidase secondary antibody. The concentration of TCE or PC required to achieve 50% maximal signal (EC₅₀) was calculated.
# [4] = molecular target: T4, CD3 (human, UniProt P07766 23-126, limits assumed, biotinylated); assay: ELISA; biotinylated CD3 on neutravidin plates, PC titrated, HRP secondary
# T4 construct: also called biotinylated CD3; CD3-biotin
# Procedure: as §1
# [5] = molecular target: T5, TBD-17 (HC S104A); assay: competition ELISA, peptide vs Fab binding to captured biotin-TROP2
# T5 construct: Fab; also called HC S104A mutant
# Procedure: (§2) ELISA-based competitive inhibition studies were used to test the ability of each peptide to inhibit the TBDs from binding to TROP2. […] Inhibitory peptides were titrated in a dilution series and pre-incubated with a constant concentration of antibody. Inhibitory peptide and antibody mixtures were then incubated on the antigen captured plates. A horseradish peroxidase conjugate secondary antibody was then used to detect the antibody binding to the plate-bound antigen. The ELISA signal was plotted versus log-scale peptide concentration. A dose dependent decrease of signal was indicative of peptides that compete for antibody binding to the cognate antigen. Graphpad Prism software was used to calculate the inhibitory concentrations of peptide required to achieve 50% maximal signal (IC₅₀s).
# [6] = molecular target: T6, TBD-21 (HC F108A); assay: as above
# T6 construct: Fab; also called HC F108A mutant
# Procedure: as §2
# [7] = molecular target: T7, TBD-11 (HC R98A); assay: as above
# T7 construct: Fab; also called HC R98A mutant
# Procedure: as §2
# [8] = molecular target: T8, TBD-22 (HC D109A); assay: as above
# T8 construct: Fab; also called HC D109A mutant
# Procedure: as §2
# [9] = molecular target: T5, TBD-17 (HC S104A); assay: as above; remark: listed apart in the source
# Procedure: as §2
# [10] = molecular target: T6, TBD-21 (HC F108A); assay: as above; remark: listed apart in the source
# Procedure: as §2
# [11] = molecular target: T7, TBD-11 (HC R98A); assay: as above; remark: listed apart in the source
# Procedure: as §2
# [12] = molecular target: T8, TBD-22 (HC D109A); assay: as above; remark: listed apart in the source
# Procedure: as §2
# T5 sequence (VH, as listed by the source, chain 1 of 2, one chain of several): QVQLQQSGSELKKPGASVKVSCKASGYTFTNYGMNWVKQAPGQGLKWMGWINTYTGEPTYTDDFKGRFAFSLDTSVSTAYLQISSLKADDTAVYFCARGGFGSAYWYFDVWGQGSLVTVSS
# T4 sequence (P07766 23-126 limits assumed): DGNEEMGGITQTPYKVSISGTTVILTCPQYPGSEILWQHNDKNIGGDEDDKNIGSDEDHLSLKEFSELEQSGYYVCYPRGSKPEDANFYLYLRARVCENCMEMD
# T8 sequence (VH, as listed by the source, chain 1 of 2, one chain of several): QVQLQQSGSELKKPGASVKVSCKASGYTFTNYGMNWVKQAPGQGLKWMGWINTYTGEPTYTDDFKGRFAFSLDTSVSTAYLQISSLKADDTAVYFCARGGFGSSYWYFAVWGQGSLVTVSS
# T7 sequence (VH, as listed by the source, chain 1 of 2, one chain of several): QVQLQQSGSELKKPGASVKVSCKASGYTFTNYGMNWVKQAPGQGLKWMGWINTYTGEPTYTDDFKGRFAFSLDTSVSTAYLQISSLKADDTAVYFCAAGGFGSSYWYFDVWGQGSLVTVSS
Binder,H292 Cytotoxicity EC50 (pM) [1] [pM],CyTROP2 HEK293 EC50 (pM) [2] [pM],EC50 [3] [nM],EC50 [4] [nM],other results
B1,> 100000,16500,828,283,
B2,12200,,630,60.2,
B3,> 100000,,4010,97,
B4,51000,,1140,77.3,
B5,> 100000,> 100000,1510,1300,HCT116 Cytotoxicity EC50 (pM) [1]: > 100000 pM
B6,> 100000,> 870000,1470,2920,
B7,> 100000,,3020,77.6,
B8,> 100000,45600,2550,556,
B9,> 100000,> 100000,2080,30,HCT116 Cytotoxicity EC50 (pM) [1]: > 100000 pM
"EDFCKLYNWPICYQ (cysteine pairing not given here; also: biotinylated, site not given here) [Peptide-7]",,,,,IC50 [5]: 3770 nM; IC50 [6]: 4010 nM; IC50 [7]: 1000 nM; IC50 [8]: 130 nM
"VDFCGLYHWPICYQ (cysteine pairing not given here; also: biotinylated, site not given here) [Peptide-8]",,,,,IC50 [5]: 890 nM; IC50 [6]: 610 nM; IC50 [7]: 300 nM; IC50 [8]: 20 nM; IC50 [9]: 870 nM; IC50 [10]: 1010 nM; IC50 [11]: 620 nM; IC50 [12]: 80 nM
